Patent US20200017877

Legend:
Experiment in all cases: cell_activity
btGDF83.6 right TALEN = conditions: pair, listed as btGDF83.6N
ssTp53 right TALEN = conditions: pair
ssGDF83.6 right TALEN = conditions: pair, 3/90
[1] = system: Kiss1.1a (tilapia) left TALEN; conditions: pair, tilapia Kiss20; range 48-91; Kiss1.1a locus
[2] = system: Kiss1.1a (tilapia) right TALEN; conditions: pair, tilapia Kiss20; range 48-91; Kiss1.1a locus
ssAPC14.2 right TALEN = conditions: pair
caFecB6.1 left TALEN = conditions: pair
ssRAG2.1 left TALEN = conditions: pair
ssGDF83.6 left TALEN = conditions: pair, 3/90
ssEIF4GI14.1 right TALEN = conditions: pair
btRosa1.2 right TALEN = conditions: pair
ssLDLR2.1 right TALEN = conditions: pair LDLRE2.1, pig male fibroblasts
ssSRY3.2 left TALEN = conditions: pair
caFecB6.1 right TALEN = conditions: pair
ssDAZL3.1 right TALEN = conditions: pair
ssSRY3.2 right TALEN = conditions: pair
ssRAG2.1 right TALEN = conditions: pair
btACAN12 left TALEN = conditions: pair, cattle fibroblasts
btACAN12 right TALEN = conditions: pair, cattle fibroblasts
ssEIF4GI14.1 left TALEN = conditions: pair
ssLDLR2.1 left TALEN = conditions: pair LDLRE2.1, pig male fibroblasts
ssP65.8 left TALEN = conditions: pair
btRosa1.2 left TALEN = conditions: pair
btGDF83.1 right TALEN = conditions: pair, cattle fibroblasts
ssP65.8 right TALEN = conditions: pair
caCLPG1.1 left TALEN = conditions: pair caCLPG1.1
ssDMDE7.1 left TALEN = conditions: pair, pig fibroblasts
ssDMDE7.1 right TALEN = conditions: pair, pig fibroblasts
ssKissR3.2 left TALEN = conditions: pair
btGDF83.6-G left TALEN = conditions: pair, listed as btGDF83.6N
caCLPG1.1 right TALEN = conditions: pair; 0/14 colonies confirmed (Table 6)
ssAPC14.2 left TALEN = conditions: pair
ssDAZL3.1 left TALEN = conditions: pair
ssTp53 left TALEN = conditions: pair
btGDF83.1 left TALEN = conditions: pair, cattle fibroblasts
ssDMDE6 left TALEN = conditions: pair, pig fibroblasts
ssDMDE6 right TALEN = conditions: pair, pig fibroblasts
ssKissR3.2 right TALEN = conditions: pair

AAAAGTATCCTCAT (double strand) [GDF83.6 right half-site (sense strand)]
activity (btGDF83.6 right TALEN): 18 % HDR day 3

AAGTCAGAGTACATG (double strand) [Tp53 right half-site (sense strand)]
activity (ssTp53 right TALEN): 22 % HDR day 3

ACAAAAATACCCTCAC (double strand) [ssGDF83.6 right half-site (sense strand)]
activity (% HDR+ colonies) (ssGDF83.6 right TALEN): 3

ACAACCCTCTCAGCCTT (double strand) [Kiss1.1a left half-site]
activity (% mosaic somatic mutation) [1]: 91

ACAATGGCTACATTTAC (double strand) [Kiss1.1a right half-site (sense strand)]
activity (% mosaic somatic mutation) [2]: 91

ACAGAAATTCTGGGTC (double strand) [APC14.2 right half-site (sense strand)]
activity (ssAPC14.2 right TALEN): 48 % HDR day 3

ACAGAGGAGGCCAGCTGGTT (double strand) [FecB6.1 left half-site]
activity (caFecB6.1 left TALEN): 17 % HDR day 3

ACCTTCCTCCTCTCCGCT (double strand) [RAG2.1 left half-site]
activity (ssRAG2.1 left TALEN): 47 % HDR day 3

ACTGCTCTGGAGAGT (double strand) [ssGDF83.6 left half-site]
activity (% HDR+ colonies) (ssGDF83.6 left TALEN): 3

AGCAACCGTGGGCCCCCA (double strand) [EIF4GI14.1 right half-site (sense strand)]
activity (ssEIF4GI14.1 right TALEN): 52 % HDR day 3

AGGTAGGGTGGAGAGAG (double strand) [Rosa1.2 right half-site (sense strand)]
activity (btRosa1.2 right TALEN): 45 % HDR day 3

AGTGCAAGGACGGGTCCG (double strand) [LDLR2.1 right half-site (sense strand)]
activity (% modified day 3) (ssLDLR2.1 right TALEN): 19

ATACATTTTACACACATAT (double strand) [SRY3.2 left half-site]
activity (ssSRY3.2 left TALEN): 30 % HDR day 3

ATATCAGACGGTGTTGATG (double strand) [FecB6.1 right half-site (sense strand)]
activity (caFecB6.1 right TALEN): 17 % HDR day 3

ATATGGTTCAGTAAAAG (double strand) [DAZL3.1 right half-site (sense strand)]
activity (ssDAZL3.1 right TALEN): 25 % HDR day 3

ATTAATGGCCTGAACCT (double strand) [SRY3.2 right half-site (sense strand)]
activity (ssSRY3.2 right TALEN): 30 % HDR day 3

ATTCAAAAGCAGCTTAG (double strand) [RAG2.1 right half-site (sense strand)]
activity (ssRAG2.1 right TALEN): 47 % HDR day 3

CCCTCTTCCTTTCCTCCAGGGATCCCTCCTACATGGCCTCCCACTGGAGAAGCAACAGAGGAGCACACAGA (double strand) [ACAN12 target]
activity (% modified day 3) (btACAN12 left TALEN): 29 | activity (% modified day 3) (btACAN12 right TALEN): 29

CCGTCCTTTGCCAACCTT (double strand) [EIF4GI14.1 left half-site]
activity (ssEIF4GI14.1 left TALEN): 52 % HDR day 3

CTCCTACAAGTGGATTT (double strand) [LDLR2.1 left half-site]
activity (% modified day 3) (ssLDLR2.1 left TALEN): 19

CTCCTCCATTGCGGA (double strand) [P65.8 left half-site]
activity (ssP65.8 left TALEN): 18 % HDR day 3

CTCGCATTGCCCACT (double strand) [Rosa1.2 left half-site]
activity (btRosa1.2 left TALEN): 45 % HDR day 3

CTCTAACTGTGGATTTTGA (double strand) [GDF83.1 right half-site (sense strand)]
activity (% modified day 3) (btGDF83.1 right TALEN): 17

CTTCTGAGTCAGATC (double strand) [P65.8 right half-site (sense strand)]
activity (ssP65.8 right TALEN): 18 % HDR day 3

GAGAGCGCAGGAATCCAGG (double strand) [CLPG1.1 left half-site]
activity (caCLPG1.1 left TALEN): 4 % HDR day 3

GCCACACAACGACTGGAACATGCATTCAACATCGCCAAGTATCAGTTAGGCATAGAGAAACTACTGGATCCTGAAGGTT (double strand) [DMD exon 7 target]
activity (% modified day 3) (ssDMDE7.1 left TALEN): 27 | activity (% modified day 3) (ssDMDE7.1 right TALEN): 27

GCTCTACTCTACCCC (double strand) [KissR3.2 left half-site]
activity (ssKissR3.2 left TALEN): 53 % HDR day 3

GCTCTGGAGAATGT (double strand) [GDF83.6-G left half-site]
activity (btGDF83.6-G left TALEN): 18 % HDR day 3

GCTGGGACCACCTGTCAG (double strand) [CLPG1.1 right half-site (sense strand)]
activity (caCLPG1.1 right TALEN): 4 % HDR day 3

GGAAGAAGTATCAGCCAT (double strand) [APC14.2 left half-site]
activity (ssAPC14.2 left TALEN): 48 % HDR day 3

GGATGAAACCGAAATT (double strand) [DAZL3.1 left half-site]
activity (ssDAZL3.1 left TALEN): 25 % HDR day 3

GGCACCCGTGTCCGCGC (double strand) [Tp53 left half-site]
activity (ssTp53 left TALEN): 22 % HDR day 3

GTGATGAACACTCCACAGAATCT (double strand) [GDF83.1 left half-site]
activity (% modified day 3) (btGDF83.1 left TALEN): 17

TCTATACCTAGGTCAAAAATGTAATGAAGAAAGTATCAGTTAGGCATAGAGAAACTACTGGA (double strand) [DMD exon 6 target]
activity (% modified day 3) (ssDMDE6 left TALEN): 25 | activity (% modified day 3) (ssDMDE6 right TALEN): 25

TGGGCGACTTCATGTGC (double strand) [KissR3.2 right half-site (sense strand)]
activity (ssKissR3.2 right TALEN): 53 % HDR day 3
